In patent US20180185504A1 (Regeneron, published 2018):
Where two headings read alike, the source gives them in different places.

T1: human prolactin receptor (PRLR) (human, UniProt P16471 25-622)
T1 sequence: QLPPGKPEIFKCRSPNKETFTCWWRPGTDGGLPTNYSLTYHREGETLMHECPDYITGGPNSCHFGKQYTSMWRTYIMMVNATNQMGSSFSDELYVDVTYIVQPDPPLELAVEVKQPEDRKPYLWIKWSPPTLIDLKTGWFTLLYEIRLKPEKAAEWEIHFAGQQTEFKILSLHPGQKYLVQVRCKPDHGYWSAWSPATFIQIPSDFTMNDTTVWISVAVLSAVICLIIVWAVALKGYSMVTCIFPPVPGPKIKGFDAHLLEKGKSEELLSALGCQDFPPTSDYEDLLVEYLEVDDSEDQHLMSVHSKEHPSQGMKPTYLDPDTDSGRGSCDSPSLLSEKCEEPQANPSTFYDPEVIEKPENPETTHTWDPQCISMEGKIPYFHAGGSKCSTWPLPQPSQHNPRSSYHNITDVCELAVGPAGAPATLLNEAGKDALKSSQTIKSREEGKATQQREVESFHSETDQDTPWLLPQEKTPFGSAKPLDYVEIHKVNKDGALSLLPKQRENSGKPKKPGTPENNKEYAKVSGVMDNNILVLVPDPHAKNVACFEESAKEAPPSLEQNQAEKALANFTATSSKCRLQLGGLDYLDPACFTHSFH

T2: mouse PRLR with an HA tag on HEK293 cells (mouse, UniProt Q08501 20-608)
T2 construct: whole, on cells; also called HEK293/mPRLR; rodent PRLR; not shown: HA tag
T2 sequence (looked up): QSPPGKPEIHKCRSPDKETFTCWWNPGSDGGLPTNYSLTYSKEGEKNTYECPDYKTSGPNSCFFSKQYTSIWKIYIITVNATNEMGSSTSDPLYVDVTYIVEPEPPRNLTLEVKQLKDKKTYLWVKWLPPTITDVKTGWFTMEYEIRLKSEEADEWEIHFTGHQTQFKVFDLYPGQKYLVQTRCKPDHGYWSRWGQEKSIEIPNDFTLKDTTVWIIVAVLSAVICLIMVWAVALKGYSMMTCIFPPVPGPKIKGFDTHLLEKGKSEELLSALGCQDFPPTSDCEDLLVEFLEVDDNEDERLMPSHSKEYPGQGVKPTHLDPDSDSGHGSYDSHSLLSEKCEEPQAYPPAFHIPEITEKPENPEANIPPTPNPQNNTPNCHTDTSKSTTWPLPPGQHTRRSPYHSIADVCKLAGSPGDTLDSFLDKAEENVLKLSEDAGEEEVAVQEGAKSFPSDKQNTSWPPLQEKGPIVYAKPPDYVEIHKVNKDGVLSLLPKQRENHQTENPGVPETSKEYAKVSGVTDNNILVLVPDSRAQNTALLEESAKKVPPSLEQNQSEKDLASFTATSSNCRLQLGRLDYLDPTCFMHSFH

T3: human prolactin receptor (PRLR) on cells (human, UniProt P16471 25-622)
T3 sequence: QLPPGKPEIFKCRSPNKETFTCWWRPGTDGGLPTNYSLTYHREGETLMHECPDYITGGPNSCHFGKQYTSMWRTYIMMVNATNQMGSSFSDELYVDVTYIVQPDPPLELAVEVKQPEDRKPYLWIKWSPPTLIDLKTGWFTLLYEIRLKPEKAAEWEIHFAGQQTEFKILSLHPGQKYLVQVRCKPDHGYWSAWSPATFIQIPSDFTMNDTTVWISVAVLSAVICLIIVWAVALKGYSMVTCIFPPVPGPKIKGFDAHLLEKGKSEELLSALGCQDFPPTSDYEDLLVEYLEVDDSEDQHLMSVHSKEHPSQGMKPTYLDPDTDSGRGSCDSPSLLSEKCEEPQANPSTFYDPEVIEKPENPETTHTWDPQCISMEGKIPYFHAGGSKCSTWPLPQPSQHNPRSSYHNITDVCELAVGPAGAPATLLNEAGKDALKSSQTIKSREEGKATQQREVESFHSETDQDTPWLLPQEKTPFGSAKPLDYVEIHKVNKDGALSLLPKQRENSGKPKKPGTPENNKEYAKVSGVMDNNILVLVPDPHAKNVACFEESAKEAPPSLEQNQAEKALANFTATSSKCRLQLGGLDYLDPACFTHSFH


Columns and labels:
[1] = biological target: T1, human prolactin receptor (PRLR); assay: cell-based or functional assay
[2] = biological target: T1, human prolactin receptor (PRLR); assay: cell-based or functional assay; remark: listed apart in the source
[3] = biological target: T1, human prolactin receptor (PRLR); assay: cell-based or functional assay; remark: listed apart in the source
[4] = biological target: T1, human prolactin receptor (PRLR); assay: cell-based or functional assay; remark: listed apart in the source
[5] = biological target: T1, human prolactin receptor (PRLR); assay: cell-based or functional assay; remark: listed apart in the source
[6] = biological target: T1, human prolactin receptor (PRLR); assay: cell-based or functional assay; remark: listed apart in the source
[7] = biological target: T1, human prolactin receptor (PRLR); assay: cell-based or functional assay; remark: listed apart in the source
[8] = biological target: T1, human prolactin receptor (PRLR); assay: cell-based or functional assay; remark: listed apart in the source
[9] = biological target: T1, human prolactin receptor (PRLR); assay: cell-based or functional assay; remark: listed apart in the source
[10] = biological target: T1, human prolactin receptor (PRLR); assay: cell-based or functional assay; remark: listed apart in the source
[11] = biological target: T2, mouse PRLR with an HA tag on HEK293 …; assay: FACS on HEK293/mPRLR cells
[12] = biological target: T3, human prolactin receptor (PRLR) on cells; assay: cell-based or functional assay

Binder	% Kill, T47D cells [1] [%]	IC50, cell viability, T47D cells [1] [nM]	% Kill, MCF7/ATCC cells [3] [%]	% Kill, MCF7/PRLR cells [3] [%]	% Kill, PC3/hPRLR cells [3] [%]	IC50, cell viability, MCF7/ATCC cells [3] [nM]	IC50, cell viability, MCF7/PRLR cells [3] [nM]	IC50, cell viability, PC3/hPRLR cells [3] [nM]	% Kill, MCF7/ATCC cells [6] [%]	% Kill, MCF7/PRLR cells [6] [%]	IC50, cell viability, MCF7/ATCC cells [6] [nM]	IC50, cell viability, MCF7/PRLR cells [6] [nM]	% Kill, PC3/PRLR cells [8] [%]	IC50, cell viability, PC3/PRLR cells [8] [nM]	% Kill, MCF7/PRLR cells [9] [%]	% Kill, MCF7 cells [9] [%]	% Kill, T47D cells [9] [%]	IC50, cell viability, MCF7/PRLR cells [9] [nM]	IC50, cell viability, MCF7 cells [9] [nM]	IC50, cell viability, T47D cells [9] [nM]	also measured
H1H6953N-DM1 (antibody, human IgG1, V domains shown, DM1 conjugated through SMCC linker; attachment residues not stated) VH: EVQLLESGGGLVQPGGTLRLSCAASGFTFSAYAMSWVRQAPGKGLEWVSSINVRAGDTYYADSVKGRFTISRDNSKNTLFLLMNSLRAEDTAAYYCAKARYSSNWGFDFWGQGTLVTVSS VL: DIVMTQSPDSLTVSLGARTTINCQSSQTILHSSNNHNYLAWYQQKPGLPPKLLIYWSSTRESGVPDRFSGSGSGTDFTLTISSLQAEDVAIYYCQQYSNTPYTFGQGTKLEIN	100	1.5	70	80	83	80	0.1	0.4	70	80	90	0.3	67	0.86	76	55	79	0.29	100	1.64	IC50, cell viability, PC3/PRLR cells (PRLR 13X) [2]: 0.68 nM; IC50, cell viability, MCF7/PRLR cells (PRLR 55X) [4]: 0.33 nM; IC50, cell viability, MCF/PRLR + ErbB2 cells (PRLR 55X) [4]: 0.33 nM; IC50, cell viability, NCI-N87/PRLR cells (PRLR 6X) [4]: 2.9 nM; IC50, cell viability, MCF7 cells (PRLR 3X) [5]: 82 nM; IC50, cell viability, T47D cells (PRLR 12X) [5]: 1.3 nM; IC50, cell viability, T47D/ErbB2 cells (PRLR 12X) [5]: 2.4 nM; IC50, cell viability, 293/PRLR cells (PRLR 18X) [7]: 0.43 nM; % Kill, 293/PRLR cells [8]: 95%; IC50, cell viability, 293/PRLR cells [8]: 0.28 nM
H1H6782P-DM1 (antibody, human IgG1, V domains shown, DM1 conjugated through SMCC linker; attachment residues not stated) VH: EVQLVESGGGLVQPGRSLRLSCAASGFTFDDYAMHWVRQAPGKGLEWVSGIIWNSGHIGYGDSVKGRFTISRDNAKKSLYLQMNSLRAEDTALYYCARDSGRYQSYFDYWGQGTLVTVSS VL: DIQMTQSPSTLSASVGDRVTITCRASHIISSWLAWYQQKPGKAPKVLIFKASSLESGVPSRFSGSGSGTEFTLTISSLQPDDFATYYCQQYNTYSRTFGQGTKVEIK	100	3							70	80	250	0.3	64	0.92	85	57	74	0.65	120	4.19	IC50, cell viability, T47D cells, + 15 nM PRL [10]: 2 nM; IC50, cell viability, T47D cells, without PRL [10]: 1 nM
H1H6782P (antibody, human IgG1, V domains shown) VH: EVQLVESGGGLVQPGRSLRLSCAASGFTFDDYAMHWVRQAPGKGLEWVSGIIWNSGHIGYGDSVKGRFTISRDNAKKSLYLQMNSLRAEDTALYYCARDSGRYQSYFDYWGQGTLVTVSS VL: DIQMTQSPSTLSASVGDRVTITCRASHIISSWLAWYQQKPGKAPKVLIFKASSLESGVPSRFSGSGSGTEFTLTISSLQPDDFATYYCQQYNTYSRTFGQGTKVEIK																					binding result [11]: no binding
H1H6804P (antibody, human IgG1, V domains shown) VH: QVTLKESGPVLVKPTQTLSLTCTVSGFSLSDAGMGVSWIRQPPGKALEWLAHIFSNDGKSYSTSLKSRLTISKDTSKRQVVLTMTNMDPVDTATYYCARIRTGTYSLYLDYWGQGTLVTVSS VL: DIQMTQSPSSLSASVGDRVTITCRASQSINSYLNWYQQKPGKAPKLLLYFASSLQSGVPSRFSGSGSGTDFTLTISSLQPEDFASYYCQESYSTPWTFGQGTKVEIK																					IC50, block of STAT5 reporter activation by 5 nM PRL in HEK293/hPRLR/STAT5-Luc cells [12]: 8 nM; binding result [11]: no binding
H1H6958N2-DM1 (antibody, human IgG1, V domains shown, DM1 conjugated through SMCC linker; attachment residues not stated) VH: QVQLVESGGGVVQPGRSLRLSCGASGFTFRNYGMQWVRQGPGKGLEWVTLISFDGNDKYYADSVKGRFTISRDNSKNTLFLQMNSLRTEDTAVYYCARGGDFDYWGQGTLVTVSS VL: DIQMTQSPSSLSASVGDRVTITCRASQDIRKDLGWYQQKPGKAPKRLIYAASSLHSGVPSRFSGSGSGTEFTLTISSLQPEDFATYYCLQHNSYPMYTFGQGTKLEIK	100	2	72	83	79	90	0.2	0.5	70	80	70	0.2	83	0.43	77	77	71	0.19	100	1.34	IC50, cell viability, T47D cells, + 15 nM PRL [10]: 3 nM; IC50, cell viability, T47D cells, without PRL [10]: 1 nM; % Kill, 293/PRLR cells [8]: 95%; IC50, cell viability, 293/PRLR cells [8]: 0.1 nM
